US8148141 (HIPEP LABORATORIES, dated 2012)
Ends that are not written are not given here. carboxyfluorescein = carboxyfluorescein (fluorescent group); ethyldansyl = not defined here

Experiments:
[1] = target: T1, calmodulin (Homo sapiens (Human), UniProt P0DP23 2-149); experiment: fluorescence of immobilized labeled peptide on glass chip, ex 490 nm / em 520 nm, calmodulin solution, 25 C, 5 min
[2] = target: T1, calmodulin; experiment: fluorescence of immobilized labeled peptide on glass chip, ex 340 nm / em 480 nm, plate reader, 1.0 uM calmodulin, 25 C, 5 min

Row | increase of the fluorescence intensity (fold) [1] | increase of the fluorescence intensity (fold) [2] | Binder
1 | ~10 times |  | K(carboxyfluorescein)LKKLLKLLKKLLKLC-NH2 (also called peptide containing carboxyfluorescein) [Lys(Rf3)-Leu-Lys-Lys-Leu-Leu-Lys-Leu-Leu-Lys-Lys-Leu-Leu-Lys-Leu-Cys-NH2]
2 |  | ~5 times | E(ethyldansyl)LKKLLKLLKKLLKLK(dabsyl)C-NH2 (reading uncertain; also: printed as Glu(Rf1)-Leu-Lys-Lys-Leu-Leu-Lys-Leu-Leu-Lys-Lys-Leu-Leu-Lys-Leu-Lys(Rf2)-Cys-NH2, Chemically synthesized designed peptide; Immobilized on a glass substrate in the assay; also called alpha-helix peptide with ethyldansyl-dabsyl labels, C-terminal Cys anchor) [Glu(Rf1)-Leu-Lys-Lys-Leu-Leu-Lys-Leu-Leu-Lys-Lys-Leu-Leu-Lys-Leu-Lys(Rf2)-Cys-NH2]
3 |  | ~5 times | CE(ethyldansyl)LKKLLKLLKKLLKLK(dabsyl)-NH2 (reading uncertain; also: printed as Cys-Glu(Rf1)-Leu-Lys-Lys-Leu-Leu-Lys-Leu-Leu-Lys-Lys-Leu-Leu-Lys-Leu-Lys(Rf2)-NH2, Chemically synthesized designed peptide; Immobilized on a glass substrate in the assay; also called alpha-helix peptide with ethyldansyl-dabsyl labels, N-terminal Cys anchor) [Cys-Glu(Rf1)-Leu-Lys-Lys-Leu-Leu-Lys-Leu-Leu-Lys-Lys-Leu-Leu-Lys-Leu-Lys(Rf2)-NH2]
